Test results as given in a protein production outcome set (Wang et al. 2014).

Assay: label from the status in PepcDB records

With “MITLARTLLLFACLLPSIHVKAEPSLQPHYKIATEADDVVTRVLFDAVSTEFGVSVEYINYASFDAILDAVANEDADFAANITYTDTRAERFSYSRPTNIEYTYLYGLSDSTLDDISRVGVPQNTIYSELIKQYHPELKQVPYKGHNEAVRLLQTGLVDGVVDAINQLKPMLLEGFDAKMLNDQISIKPVSIISKKGHHLEELDTFASFIHGEAVQKQLREQIALYQFELRRSALRDAIKLLPVDLKEPIRIKMESIFPYVVYNPDGTVQGMTADIVLQSCEILDLNCVIISEPNESWESMYRQFMKGEFDILAPLTVSRERHEFSYFPRPHYSPASVMVKRLGYKPNTYSHVSQLISERIGVVKDDFFDQMMTQLLPLKELERFNTQHDLIEALLKGEVDYIPMDTAMLNHFLRLSELVPIEQDTAIGEFYSSQLSIGLVANERGAMLAPYFSRAIAMLGVDKIVAQYDLRPDWRTALEYEVRLATQTQAVFLFVLVLAICVSLYLYRQSNTDNLTGLRNRRSLQVKYRQGVNKDLAILYLDINHFKQINDTYGHLAGDEVLQLLSLKIHRVWSGRSYRIGGDEFILLGYPTQIELSRAVQELSRLDVTDKLCAELKTVTISVGVSEKRKQHMSLEQALHLADEDMYVSKHSSRHYSGSSNYLVQS” the protein production was “failed”.
In the case of “MITLEKEKVTVNPDIKVIKRDGRMVTFDSSKIYEAILKASETITPITPLIETKLEEIANRVVAEINDRFSHNIKIYEIQSIVEHELLEANEYAIAQEYINYRTKRDFERSQATDINFTINKLV”, the protein production is reported as “failed”.
With “MITLSQRIFIILESAWRRRYLIVLPIILMPFIGLTVAKLAPKHYDSHTSMLIQETAKMNPFLEDLAVSTMLKERLSALQTLLHSRHILGSVAEERGYIHESMSPQAIDNEINKLSANLSVSMAGKDLIRIDYRANNPDGMKDTLEAVSRHFTEQLLAPERSSMKDSSKFLSDNIEFRRQELDAAEEKLAEFKSQENTVLPEMQITSLDRLTKLKQRLYERQAELAGAKKRLGSIDLQLSKTNPVIGKIEEQIIRIRGELTLLQAKYTPQHSKVQGKLRNLNRLEEERSRLLSQTQPGLSSEQLWDIASSNSVEDLAKAPPILLSQLEELQQATSKVDALTEETRVLESMIKDIELQASTFGQNEKVLYQLQRDLALKRELYNDLVERFEMAKLTRSLGVFEQEKRVKIIDRPYTPSGPSNLPTILYAIAGVIGGIGFGIGMAIIAELCDTSIRRKDEIATLSTSPVLSRIPPQPVKCFNLSEDTHSTTNNLLSSMSKAN” the protein production was “failed”.
In the case of “MITMTEVKGKTANESRVFKTSRVFPTDLNDHNTLFGGKILSEMDMVASISASRHSRKECVTASMDWVDFLHPVRSSDCVSYESFVIWTGRTSMEVFVKVVSEYLISGEKRIAATSFVTFVALSKENNPVPVPRVIPDTEEEKESHRIAVLRAEQRHIRKAESKKVATLLTF”, the protein production is reported as “not failed”.
In the case of “MITRTVKAQLLAFATVTAVGVSYVGAEYTGLVDDVLGRGYTVRADFADSGGIFPGAEVTYRGVPVGRVGALRLTGSDGVSVALDIKDGVPRIPADTLAVVANRSAVGEQYVDLQPRTSHGPYLLDGSAIPRGSTRVPLPTTDLVLSLDRLVDSVGKDDLRVTVDELGKAFSGTGPNLSRLVDSGNALVESASESLPQTISLIEDSRKVLKTQADQGSSIKSFAHDLAALSAQLKSSDGDLRKLIGNATPAAQQVNSLLKSTGPRLSVLLANLISGGQVTLARLPGVEQSLVTFPALVAGSYTVVPGDGTTHFGLVVNADDPPPCTQGYGTTRRDPSDTSTREANTDARCTAPRGNKTSVRGAQNAPGASTTSGGTNQAAYVTPYDPETGTATGPDGRPVEIGSTGGQQAVFGRESWQWLLVGPMA”, the protein production is reported as “failed”.
For “MITSNLFDLRRWRANMSAMRFFALTSAALPLALMLLTSSFPAAAAEKSAAATKKDVIVEQADANNSPKQHLDQLFSQLKRERDPEKASGIANEIRMEWNDSGSATVNLLMQWADKAIEEKRNPAALDFLDEAIALKPDYAESWNRRATLNFVMGNYRKSMSDIERVLDLEPRHFGALSGMAAILSNSGNDQLTLKAWERFLDIYPAERTAQEQANTLAEKLAGNRT”, the protein production was “failed”.
For “MITTFKCVLVTKNIRMNERLMNSQSGYLRKAVNHPINWYTWSNDVFEIAKKENKPILIDVGAAWCHWCNVMDEDTYSNPEIAKIVNENFIPVKVDRDEMPDLDRLLQNAAMAITGESGWPLTIFMTPEGKVFFGGTYFPPEDRYGRIGFKRLLLEILRIWREDRNQILLSS”, the protein production was “failed”.
With “MITTIPWKATQAQPNAFPERQALMPVWEGEAIPQAEWQQCWQQAAINVLKEDGLAYFHIPFCASHCIFCGFYRNAWKEDYSKVYTDKLIEELAYEASIRQGNGKIQAVYFGGGTPTALATEDLVRLIKACYQYLPLATDCEFTLEGRISHFDIEKARACVEAGVNRISIGVQTFNSAIRKRLGRKHSGEEAYAYLQALCELDAVIVADLIFGLPNQTDEVWANDINVASGLPLSGLDIYAFNNYPFLPINKMIEHGTLPPAASFEVQAQHYAYAVENLQQAGWTQVSNNHFAFPGRGERNRYNTLVKSNMPCLAFGSGAGGNFSGYSFQVDTTLQTYLDTPADKKALSYLSKQGPNKQLLGIVQHDLELGYLDIKLFRDNPKAMKLLMQWQQLSLLNIDANGIACLNISGRYWSPTLIRKLMLTLPTHDEKEHKMVKLSEQQLAELRQSLAENPGQILEMVAGMKQCSFEEVISCLPQEMITKTDGSRFVEIMQALATLEDAVTFIAHTADAIVEVTGKLPSGQIGRGFYNFDHTHEGGVHGHLRYENCAAIYLLERPFMGKHTVSLNFVNHQGGAMFKIFVGRDAERNLRQNQIDFMRQLIKG” the protein production was “failed”.
In the case of “MITVLILRCIMVKSTTRKSAKSDRRRYNRIARFYDLFETPMELMNFRKWRKMLFDLIKAEKGLVLEIGAGTGKNIPHYPSNVVALDISEKMLERAVRRAKESGKKVDFLLADAENLPFRSNSFDVVFTTFVFCSVDDPVRGLREAFRVLKKGGRAYFLEHMLPKSRFLHPLFNLLNPIFRAFGPEINRRTDENIQRAGFQIVKEYMLFGSVFRLIVAEKPLDSVDEASGYSLKRSESSDSSNFRRFIGQSLLPLRLTQLLR”, the protein production is reported as “failed”.
In the case of “MIVEVLIRVFFLICTAALGWGAGYILKLSSKEISSLLVYVISPFVIFVSILQSPADWTYFAYSLGALLTASVAAFLAYGLARMIWSDGRVNLFSFAAGTGNTGYFALPLAFALFNAQQIAIAVFIIIGINIYEFTVGYFIAAKGTFKTTDSLQKIVRLPILYAIILGMTFKKWGIDVGATLLSAMSNFKGAYSVLGMMVIGVTLASYQKIKIDWGFLIATLTWKHLIYPAVGVLIFYFITPVSIDTLAVIVMMLATPMAANTVVVANTLNLYPEKAAFSVMVSTFLAVVTVPLAIVWVTRLSR”, the protein production is reported as “failed”.
In the case of “MIVKEDSVEAVGAQLKVYHQQYQDKSREYDQLYEEYTRTSQELQMKRTAIEAFNETIKIFEEQGQTQEKCSKEYLERFRREGNEKEMQRILLNSERLKSRIAEIHESRTKLEQQLRAQASDNREIDKRMNSLKPDLMQLRKIRDQYLVWLTQKGARQKKINEWLGIKNETEDQYALMEDLEHHHHHH”, the protein production is reported as “failed”.
For “MIVPYSVEDILKDGCFLERAEIDRLLDRLRTKKNLILQGPPGTGKTWLAKRLAFALMGQKDDSKVRAVQFHPNLSYEDFVRGWRPTGEGKLSLADGVFMEAIKAASKDPSSKFVVVIEEINRGNPAQIFGELLTLLEAGKRTPNEALELCYPDADGKRRPVHIPENLYVVGTMNIADRSLALVDLALRRRFAFVGLEPRLGQVWRDWVVKECAVDPLEHHHHHH”, the protein production was “failed”.
For “MIVRGGGDLATGVIQKLWHVGFKILVLETECPLAIRRTVSVCDAIFQKEQRVEDLVAVRITSLKDCAKCWQQNKLPVFVDQTASAIQQLKPLIVIDAILAKKNLGTHRGMAPITIALGPGFSAPQDVDVVIETMRGHRLGRLYFEGTALPNTGIPGEIGGKSAERVVHAPASGQVTHLKNIGDLVLKGEALFLIDQVPVYSPLTGTLRGLISEKVTCYQGLKCADVDPRPVEKVDCLTISDKARALGGAVLEAIFMIGRRKNVLLEHHHHHH”, the protein production was “not failed”.
With “MIVRMRSCAQAAKVAEATGGVQLAGKPKPDGTPTFSRYVEIGVDFEAHRPVVESVSVLFELYDGDANSYAATGGPGAQLPSGWMVTAAKFEVEWPADPQRAGLVRSHFGARRKAFNWGLAQVKADLDAKAADPAHESVDWDLKSLRWAWNRAKDDVAPWWAENSKECYSSGLADLAQGLANWKAGKNGTRKGRRVGFPRFKSGRRDPGRVRFTTGTMRIEDDRRTITVPVIGPLRAKENTRRVQRHLVSGRAQILNMTLSQRWGRLFVAVCYALRTPTTRSPLTQPTVRAGMDLGVRTLATVATLDTATGEQTIIEYPNPAPLKATLVARRRAGRELSRRIPGSHGHRAVKAKLARLDRRCVHLRREAAHQLTTELAGTYGQVVIEDLDVAAMKRSMRRRAFRRSVSDAAMGLVAPQLAYKTAKCSGVLTVADRWFASSQIHHGCTSPDGTPCRLQGKGRIDKHLLCPVTGEVVDRDRNAALNLRDWPDNASRGPVGTTAPSAPGPTTTVGTGHGADTGSSGAGGASVRPRPRRAGRGEAKTQTPQGDAA” the protein production was “failed”.
In the case of “MIWQLIDKHRQSFGVEPLCRVLQVSPSAYRRHAARLRDRSRRSARAIRDEELAVQIHRVWQENYEVYGARKVWRQMHREHQVVARCTVERLMREMGLCGVTRGKTVKTTQPDPDNANPRDLVKRQFTAERPNQLWVADFTFVSTWQGFAYVAFIVDVYSRFIVGWRVSRHMRTEFVLDALEQALHTRRPEPHRLVHHSDRGSQYLSIRYSERLGEAGIEPSVGNTGDSYDNALAETINGLYKTELIHKRGPWKSVDSLEWETLKWVTWFNHQRLLEPIGNRPPAEFEALYEQSQATISVAA”, the protein production is reported as “failed”.
In the case of “MIYKITLTDISLAQAFISIPQDVIALDLSNNLLGSKSCVDLLVNIADCIPAGVTSLDLSSNGLRLTQVSLVTPKHVTSLNLCFNPLHEISIDGLEWLKDSLAHIQIIYLSYDMVNNMSREQRQAFRAVIPNIQTIILVDKNGKEIGPSHTAKIANLISELGGGNPEVPSLLNQCTFFVKTQGINIDKAYIPEELKKRIHDCNPL”, the protein production is reported as “failed”.
For “MIYPDELAVITSKFELELSETDRNKVHENVSTVSGRDFFMSIFEGLKMKDKILEYWDFRSSDYHTEYAHCMDEEMDVWKSVFSEILLTDKKVRAVEVGTGPGILAISLAAMGHDVTGVDLSENMLEKAAANAREKGVNVLLMRGDAEDIPLKDGEYDFVLSKYLLWTLPQPDKFLGECCRLLKDGGIMMIIDGLWFHNPDGTEKKSSRYERFDELYGDVKPNLPFAKENTPERIADLAESHGFEDLTWRFLDDYDAFLERNDPSGHAAAYIKPPHMILAKKKVRNS”, the protein production was “failed”.
In the case of “MIYSKVENFINENKQNAIFTEGASHENIGRIEENLQCDLPNSYKWFLEKYGAGGLFGVLVLGYNFDHASVVNRTNEYKEHYGLTDGLVVIEDVDYFAYCLDTNKMKDGECPVVEWDRVIGYQDTVADSFIEFFYNKIQEAKDDWDEDEDWDD”, the protein production is reported as “not failed”.
In the case of “MKAALLDQVARVGKALANGRRLQILDLLAQGERAVEAIATATGMNLTTASANLQALKSGGLVEARREGTRQYYRIAGEDVARLFALVQVVADEHLEHHHHHH”, the protein production is reported as “not failed”.
With “MKAIMRRLIMTNFFNTPLFGLTLSVLAYTLGLSLYRRFPNPLTTPLLVSTALIIVILHYTGICYRDYYVGGSYLNSLIIPSTVALAVPFYKNLHLMRHHCKSILIGSTVACILNTTYTALIAKLFGMDYFLAISLFPKSVTTAMAVGISEKMQGITTVTLVVVVITGILTSVLGPVFLKMIGIKDPVAIGLSLGGTGHAVGTGTAFRYGQVAGAMGGLSIAVTGILYVFISPIVASLILR” the protein production was “failed”.
